PMC5487423, “Yeast surface display identifies a family of evasins from ticks with novel polyvalent CC chemokine-binding activities” (Scientific Reports, 2017)

T1: P467_RHIPU, purified, C-terminal StrepII-8xHis tag (Rhipicephalus pulchellus, UniProt L7M8Z8 22-127)
T1 sequence: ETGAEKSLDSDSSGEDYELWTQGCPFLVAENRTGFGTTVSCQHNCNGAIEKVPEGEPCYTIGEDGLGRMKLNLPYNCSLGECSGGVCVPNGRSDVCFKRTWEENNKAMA

T2: P991_AMBCA, purified, C-terminal StrepII-8xHis tag (Amblyomma cajennense, UniProt A0A023FFD0 29-136)
T2 sequence: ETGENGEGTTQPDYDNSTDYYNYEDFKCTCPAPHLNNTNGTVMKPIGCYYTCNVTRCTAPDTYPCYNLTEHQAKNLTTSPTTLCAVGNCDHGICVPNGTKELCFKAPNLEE

B1: CCL3 (ligand, human, UniProt P10147 24-92, looked up)
chain: SLAADTPTACCFSYTSRQIPQNFIADYFETSSQCSKPGVIFLTKRSRQVCADPSEEWVQKYVSDLELSA
notes: source: bought: Peprotech
B2: CCL11 (ligand)
chain: not shown
notes: source: bought: Peprotech
B3: CCL5 (ligand, human, UniProt P13501 24-91, looked up)
chain: SPYSSDTTPCCFAYIARPLPRAHIKEYFYTSGKCSNPAVVFVTRKNRQVCANPEKKWVREYINSLEMS
notes: source: bought: Peprotech
B4: CCL7 (ligand)
chain: not shown
notes: source: bought: Peprotech
B5: CCL1 (ligand, human, UniProt P22362 24-96, looked up)
chain: KSMQVPFSRCCFSFAEQEIPLRAILCYRNTSSICSNEGLIFKLKRGKEACALDTVGWVQRHRKMLRHCPSKRK
notes: source: bought: Peprotech
B6: CCL18 (ligand, human, UniProt P55774 21-89, looked up)
chain: AQVGTNKELCCLVYTSWQIPQKFIVDYSETSPQCPKPGVILLTKRGRQICADPNKKWVQKYISDLKLNA
notes: source: bought: Peprotech
B7: CCL8 (ligand, human, UniProt P80075 24-99, looked up)
chain: QPDSVSIPITCCFNVINRKIPIQRLESYTRITNIQCPKEAVIFKTKRGKEVCADPKERWVRDSMKHLDQIFQNLKP
notes: source: bought: Peprotech

Columns and labels:
[1] = molecular target: T1, P467_RHIPU, purified, C-terminal …; experiment: BLI; Kd and koff determination: His-tagged evasin immobilised on Ni-NTA biosensor (OctetRed), chemokine dilutions from 300 nM to 0.4 nM, 30 °C, same buffer as the screen; reference protein subtracted; 1:1 model with global fit, or steady state; each experiment once; conditions: both partners purified
[2] = molecular target: T2, P991_AMBCA, purified, C-terminal …; experiment: as above; conditions: both partners purified

Row | Binder | binding result [1] | binding result [2] | dissociation half-life [2] [h]
1 | B1 | binds |  | 
2 | B2 | binds |  | 
3 | B3 | binds | binds | 
4 | B4 |  |  | 2.4
5 | B5 | binds |  | 
6 | B6 | binds | binds | 
7 | B7 | binds |  | 
